The values below come from paper PMC2837123.

What is called stoichiometry N is a count of units in the complex or per binding partner.

The target in this test is full-length wild type prototype foamy virus (PFV) integrase (prototype foamy virus (PFV)). In words: crystal structure.

“full-length wild type prototype foamy virus (PFV) integrase (enzyme)” gave a stoichiometry N of 4.
